Columns and labels:
Format in all cases: cell-based, human
[1] = tested on: AICDA, BLIMP-1, RAG expression; test: Quantitative RT-PCR of AICDA, BLIMP-1 and RAG mRNA in immunized PBMCs
Protocol: Quantitative RT-PCR was carried out with a BioRad iCycler and the 2-(ΔΔCT) method was used to calculate relative mRNA expression levels normalized to GAPDH.
AID is known to be involved in B cell affinity maturation by inducing hyper-mutation in antibody genes. Expression of BLIMP-1 represents the proliferation and differentiation of active B cell. To test the effect of TLR agonists on the expression of AID, mRNA levels of AICDA (that encoding AID) after treatment with the synthesized TLR7/8 agonist (500 nM), in comparison with that of CD40L (55 nM), was determined by quantitative RT-PCR. PBMCs were collected from two different donors (see FIG. 8, donor 3 and donor 4). […]
To test the effect of TLR7 agonist imiquimod on the expression of AICDA and BLIMP-1, mRNA levels of AICDA and BLIMP-1 after IVI in the presence of the TLR7 agonist imiquimod (500 nM), was determined by quantitative RT-PCR, in comparison with that of CD40L (FIG. 9). […]
AICDA, RAG gene expression of the harvested cells was also measured by RT-qPCR analysis respectively. […] Data are expressed as means±SEM of triplicate independent samples (****P<0.0001, **P<0.001, by 1-way ANOVA with Sidak's multiple comparisons test).

[2] = tested on: PBMCs; test: In vitro immunization (IVI) of PBMCs, antigen-specific IgG/IgM production by ELISA; conditions: for IgG production compared with Basic alone / IgM production compared with Basic alone: FIG. 19; for antigen specificity of antibody production (anti-OVA IgG vs anti-OVA IgM and anti-BSA IgG): basic + OVA, 14 days, FIGS. 20A-20C
Protocol: PBMCs were washed and diluted with PIV culture medium. Cell density was adjusted to 1*10^^7 cells/ml, treateder with 0.25 mM LLME for about 20 min. Discarded supernatant, and re-suspended cell with PIV culture medium. Adjusted cell density to 9*10^^5 cells/ml. […] Cultured the tissue for 7 days at 37° C., 5% CO2. Changed half of the medium and added factor cocktail on day 7. Cultured the cells for 7-21 days at 37° C., 5% CO2. Collected the supernatant on day 7, day 14, or day 21 for analysis of antibody production by ELISA, whereas the pellets are used for testing gene expression by PCR or RT-PCR. The collected cells were also tested in ELISpot assay for FACS analysis.
Exemplary IVI steps with addition of stimulate factors: • 1. Prepared PBMCs and treat them with LLME. • 2. […] Collected the cells and plate them into 96-well plate at a density of 6*10^4/well. • 4. […] The IgG and IgM level was examined with ELISA assay.
After day7 or day14 with addition of cytokines or antibody-enhancing composition and antigens, supernatants were harvested and added to antigen OVA-coated plates. After 2 hr incubation, a HRP-conjugated anti-human IgG or anti-human IgM was added, the amount of antigen-specific antibody was measured using TMB as substrate. The data represents the mean of 2 replicates; error bars represent SD. One representative data of 3 separate experiments is shown.
Plates were coated with antigen at 5 μg/ml overnight at 4° C. and washed them in PBST (containing 0.5% Tween-20). The plates were blocked with 5% BSA before addition of cell culture supernatants and horseradish peroxidase (HRP)-conjugated detection antibodies (dilutions: 1 in 2,500 for HRP-conjugated IgG-specific antibody (Jackson) and HRP-conjugated IgM-specific antibody. TMB substrates solution was used for measurement. […]
To further test effects of other cytokine or molecules on antibody production, a synthesized TLR7/8 agonist (50 nM and 500 nM) was added to the IVI system in the presence of antigen OVA (2 μg/ml).
An exemplary cytokine, IL1β, was tested. PBMCs were incubated in vitro with OVA, basic, and either some of the known stimulating factors ICOS, CD40L, TLR7/8 agonists or IL1β (in different doses) (1.5*10^^5 cell/well, 96 well plate). After 7 or 14 days, supernatants were harvested, and IgG/IgM antibody production was measured by ELISA assay.

[3] = tested on: GC like B cells within PBMCs; test: FACS analysis of GC like B cells (CD3-CD19+GL7+Fas+) after in vitro immunization
Protocol: We analyzed stained cells on an […] (BD) and processed flow cytometry data with FlowJo software (Tree Star). PBMCs were collected into Snap-lock microtubes. For analysis of T cells or B cells, tubes were kept at 4° C. unless mentioned otherwise. After centrifugation, cells were washed and resuspended in PBS. For analysis of T follicular helper cells, PBMCs were stained with antibodies of CD3−FITC (BD), CD4− PerCP−Cy™5.5 (BD), CXCR5−PE/Cy7 (Biolegend), and CD45RA-PE(eBioscience), respectively. T follicular helper cells were identified with CD3^+CD4^+CXCR5^+CD45RA^−. For analysis of GC like B-cells, PBMC was stained with antibodies of CD19-PE (eBioscience), GL7− Alexa Fluor 488 (eBioscience), Fas-APC (eBioscience). GC like B-cells were defined as CD19^+GL7^+Fas^+.
After FACS sorting, GC like B cells are gated as CD3^−, CD19^+, GL7^+, Fas^+ cells. Numbers within the gates represent the GC like B cells of different groups. […] The ratio of GC like B cells is about 85.25% (FIG. 5B). Similarly, the PBMCs treated with ICOS. The ratio of GC like B cells is about 90.42% (FIG. 5C).
In the same way, PBMCs were incubated in vitro with OVA, basic, and CCL1 (1 μg/ml). After 7 days, cells were harvested, and single cell is sorting with CD19, CD3, GL7, FAS antibody as specific markers, dead cells are excluded by staining with DAPI. GC like B cells are gated as CD3−CD19+GL7+Fas+ cells. […]

## CC(C)Cn1cnc2c(N)nc3ccccc3c21 [imiquimod, reference compound]
[1]; OVA, basic, agonist 500 nM, FIG. 8 and FIG. 9
  expression of AICDA and BLIMP-1 compared with CD40L: far superior to CD40L

## CXCL2: Human C-X-C motif chemokine 2
[2]; in vitro for 14 days, OVA
  IgG production compared with Basic alone: better than Basic alone

## CXCL5: Human C-X-C motif chemokine 5
[2]; CXCL5 20 ng/ml, in vitro for 14 days
  IgG production compared with known stimulating factors: inferior to TLR7/8 agonist but better than ICOS and CD40L
[2]
  antigen specificity of antibody production (anti-OVA IgG vs anti-OVA IgM and anti-BSA IgG): similarly stimulate the activation of OVA-specific B cells
[2]; in vitro for 14 days, OVA, basic, FIG. 18
  IgG production, dose relation: dose-dependent

## IL1β: Human interleukin-1 beta, adipose tissue-derived secretory protein
[2]
  antigen specificity of antibody production (anti-OVA IgG vs anti-OVA IgM and anti-BSA IgG): promotes generation of anti-OVA IgG in a high level

## IL21: interleukin-21, cytokine; part of 'basic' medium at 50 ng/ml
[2]; antigen TrkA, individual stimulants, day 7, IL21 50 ng/ml
  production of anti-TrkA antibody IgG / IgM by individual stimulants: stimulated the production of antibody IgG but not IgM

B1: CD40L: CD154, CD40 Ligand protein (protein, UniProt P29965 113-261, looked up)
CD40 ligand, soluble form: MQKGDQNPQIAAHVISEASSKTTSVLQWAEKGYYTMSNNLVTLENGKQLTVKRQGLYYIYAQVTFCSNREASSQAPFIASLCLKSPGRFERILLRAANTHSSAKPCGQQSIHLGGVFELQPGASVFVNVTDPSQVSHGTGFTSFGLLKL
[3]; antigen OVA 2 μg/ml, IL2 10 ng/ml + IL21 50 ng/ml (basic), sorted on day 14
  ratio of GC like B cells: about 85.25%
[2]; ICOS 24-100 nM, CD40L 10-55 nM, TLR7/8 agonist 0.1-500 nM, OVA, IL2, IL21
  regulation of IgG and IgM responses with dose: dose-dependent manner
[2]; OVA 4 ug/ml, IL2 10 ng/ml, IL21 50 ng/ml, 24 nM ICOS, 55 nM CD40L, 500 nM TLR7/8 agonist, 7 or 14 days
  IgG production on co-stimulation with IL2 and IL21: synergistic, complimentary effects on enhanced IgG production

B2: CCL4: Recombinant Human C-C motif chemokine 4 (protein, UniProt P13236 24-92, looked up)
C-C motif chemokine 4: APMGSDPPTACCFSYTARKLPRNFVVDYYETSSLCSQPAVVFQTKRSKQVCADPSESWVQEYVYDLELN
[2]; in vitro for 14 days, OVA
  IgG production compared with Basic alone: better than Basic alone
  IgM production compared with Basic alone: better than Basic alone

B3: IL27: Recombinant Human Interleukin 27 (protein, UniProt Q8NEV9 29-243; Q14213 21-229, looked up)
Interleukin-27 subunit alpha: FPRPPGRPQLSLQELRREFTVSLHLARKLLSEVRGQAHRFAESHLPGVNLYLLPLGEQLPDVSLTFQAWRRLSDPERLCFISTTLQPFHALLGGLGTQGRWTNMERMQLWAMRLDLRDLQRHLRFQVLAAGFNLPEEEEEEEEEEEEERKGLLPGALGSALQGPAQVSWPQLLSTYRLLHSLELVLSRAVRELLLLSKAGHSVWPLGFPTLSPQP
Interleukin-27 subunit beta: RKGPPAALTLPRVQCRASRYPIAVDCSWTLPPAPNSTSPVSFIATYRLGMAARGHSWPCLQQTPTSTSCTITDVQLFSMAPYVLNVTAVHPWGSSSSFVPFITEHIIKPDPPEGVRLSPLAERQLQVQWEPPGSWPFPEIFSLKYWIRYKRQGAARFHRVGPIEATSFILRAVRPRARYYVQVAAQDLTDYGELSDWSLPATATMSLGK
[2]; in vitro for 14 days, OVA
  IgG production compared with Basic alone: better than Basic alone
  IgM production compared with Basic alone: better than Basic alone

B4: CCL8: Human chemokine (C-C motif) ligand 8 (protein, UniProt P80075 24-99, looked up)
C-C motif chemokine 8: QPDSVSIPITCCFNVINRKIPIQRLESYTRITNIQCPKEAVIFKTKRGKEVCADPKERWVRDSMKHLDQIFQNLKP
[2]; OVA, basic, FIG. 17
  IgG production compared with known stimulating factors: inferior to TLR7/8 agonist but better than ICOS and CD40L
[2]
  antigen specificity of antibody production (anti-OVA IgG vs anti-OVA IgM and anti-BSA IgG): similarly stimulate the activation of OVA-specific B cells

B5: CCL1: Recombinant Human C-C motif chemokine 1 (protein, UniProt P22362 24-96, looked up)
C-C motif chemokine 1: KSMQVPFSRCCFSFAEQEIPLRAILCYRNTSSICSNEGLIFKLKRGKEACALDTVGWVQRHRKMLRHCPSKRK
[1]; 7 days, RT-qPCR, FIGS. 25B-25C
  AICDA and RAG gene expression, CCL1 plus TLR7/8 and basic vs TLR7/8 and basic only: increased expression level of AICDA and RAG genes
[3]; 7 days, FIG. 25D
  GL7+FAS+ cell ratio, CCL1 plus TLR7/8 and basic vs TLR7/8 and basic only: increases
[2]; R848 1 μg/ml, 7 days, FIG. 25A
  antigen-specific antibody production, CCL1 plus TLR7/8 agonists and basic vs TLR7/8 agonists and basic only: significantly increased

B6: CXCL16: Mouse chemokine (C-X-C motif) ligand 16 (protein, UniProt Q8BSU2 27-246, looked up)
C-X-C motif chemokine 16: NQGSVAGSCSCDRTISSGTQIPQGTLDHIRKYLKAFHRCPFFIRFQLQSKSVCGGSQDQWVRELVDCFERKECGTGHGKSFHHQKHLPQASTQTPEAAEGTPSDTSTPAHSQSTQHSTLPSGALSLNKEHTQPWEMTTLPSGYGLEARPEAEANEKQQDDRQQEAPGAGASTPAWVPVLSLLAIVFFLTAAMAYVLCNRRATQQNSAGLQLWYTPVEPRP
[2]; in vitro for 14 days, OVA
  IgG production compared with Basic alone: better than Basic alone
  IgM production compared with Basic alone: better than Basic alone

B7: CXCL13: Recombinant Human chemokine (C-X-C motif) ligand 13 (protein, UniProt O43927 23-109, looked up)
C-X-C motif chemokine 13: VLEVYYTSLRCRCVQESSVFIPRRFIDRIQILPRGNGCPRKEIIVWKKNKSIVCVDPQAEWIQRMMEVLRKRSSSTLPVPVFKRKIP
[2]; in vitro for 14 days, OVA
  IgM production compared with Basic alone: better than Basic alone

Source: patent US20240043514A1, “NOVEL METHOD FOR PRODUCING ANTIBODIES” (TSINGHUA UNIVERSITY, priority 2017, published 2024)
